Experimental data published in paper PMC3116947.
Where a chain is given by its changes, count along the chain named. Where “and” joins values, the source holds several entries; their conditions need not be identical. Equal entries are not always repeated. Blank lines part the entries; values can stand above or below the binder they belong to.

Assays:
[1] = target: Gab1 G1 peptide (Homo sapiens); assay: ITC
[2] = target: Gab1 G2 peptide (Homo sapiens); assay: ITC

Kd [1]: 171 µM
B1: Grb2 cSH3, P62993 (protein)
chain: QQPTYVQALFDFDPQEDGELGFRRGDFIHVMANSDPNWWKGACHGQTGMFPRNYVTPVNR

Kd [1]: 200 µM and 152 µM and 50 µM | Kd [2]: 42 µM
B2: Grb2 cSH3, P62993 (protein)
chain: B1 chain with A32D

Kd [1]: 444 µM | Kd [2]: 158 µM
B3: Grb2 cSH3, P62993 (protein)
chain: B1 chain with E16A, A32D
